Assay results reported in the NTF2 design screens of Basanta et al. (2020).

Assay: protease stability score; higher = more stable; yeast display proteolysis, trypsin and chymotrypsin;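 note: relative to predicted unfolded state with 0 unfolded-like and 1 meaning tenfold more protease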

Sequence | protease stability score
TEHEKFKEEWVRMFLRDWLTGNENTLRHLADPDTLLEINGRIFHGMHTISRWTEEHLRRIDHLRLEMHTVDVIGDFAHVHGTLKLHVGDKEHHVTFHINLFTINGRIKSIIVKEE | 1.43
TEHHERHIKLMRKIIEALLTGDEEILRKLMDPDVRWEQGDKTVIGMEAVIKFLKDVSRHIRIKDIKIERQTDINGRMFTEGHLHIQYGDKEDTQEVHIELDVINGRIKSFHVEYR | 1.65
TEHRHLIEQHLRDLQHDMRTGDEDNLHKLADPHVRVDIDGRQLHGREAWSKTMFELRTDIRVDRFDVQGNKIHIEGHLIEHFDGRTINMRVHIIWFKVDGRWLIHEVRIE | 1.22
TEIEEHIREVSEILTDWIITGNEEMIEKLLDPHARVVIGDKEHHGREVVIRFLRHWRLHRFDHRSFILQGEKAILIGDMDGDINGQRINLHVEEIHIIVDGRLKILEVKYK | 2.7
TEIEKLLDEIVKHFLWAFLTGDWDKVAKLADPNTKSVWNGVDLVGMHLNEHVLEMLIRRYDVIHSIHLRSYRTQGDKLHVDSELNMIQGDKEETVRVRITLHVVNGRLKSIEVRIE | -0.002
TEIKHHVKEMADLFLENLLTGNEDILKKLMDPNALLVVGNKHIHGWEEMIKQWKDVRRHMRIEHVETEDIELQGDKAHIHVNIFGQINGKRKESHVRIHFEVFDGVLRRVEIDER | 1.18
TEKEEIVEETMKQLLHAEETGDWRTIEHLLDPNTRIIVEFNGVEIVLHGREEAVKFMFDFARHWRIKDFKVESIDIQGNKVHMRIRVDMEFNGKHIRTETNIHTVVVDGRIKSHERRVE | 1.63
TEKEELYRKIYELLENLLFTGDEHAWRNNMDPHVKILLNIDGKIHDLHGWHAWHLVLRLLGIDHMEFKDFHVQGDKFHLELTVDFDGREHIMRVDIIVVNGKITSVRVSIE | 1.37
TELDELALKLLEQLIELEATGDWKTLLKLFDPNTRVDIEVGDKKIRLHGREDVIEWVKTVYEHLRFEIRIHSSDAIDGRVHVSTKLIIRIDGRTIEVETHLRVIMIDGKIHEVNTHVH | 1.43
TELDEQVTEVFKINERLKQTGDWKKIIDYVDPHARVEIGEFRDHGRDAAEFTMKYLGIDHFELKRVHLQGNKLHIHGELTVDGRLIHLIIISEKVDGRWITKSMTVD | 0.01
TELDKHLEDFAREFLHAFLTGDEDELRRLLDPNVKFEHDFDGVRFENHGMSALKEFWERVDVIDRFEIHEVRTQGDFIELVFHIDGWVNGRHKRTDSRILLVVINGKIKTIHVKIK | 2.15
TELDKHVEDLLHRFIEALHTGNWEQLEHLVDPDARFDVDGRIHHGREWLLTHMTRIKNARIEFHHIEIYGDYISMRVIIHVNGQTRDFHLELITFNGRIKEVRIWHI | 2.34
TELEDELRKMFESWRHNSRTGNEHAEDNNMDPNVKLLIDGRTVVGMEFYRKWVHEARIEDSHVDHHTVIDGRAHVHMTLNSNYNGVHRRLEIELVSEKIDGKWRLKSIIIR | 1.51
TELEDLVKRLWHIWLHAVLTGDEDLLTKLIDPHARLEIHIGDKEFIHIGREEFVRFMREYHRHLRVERVDERSMEVIGNKSHSDVRTVIHIDGRTIDTRMHIDLIVVNGRVKSLEIHVH | 2.26
TELEEDIVRAWERFVRSLETGNERSIRELMDPNPRIVIGDYEFHGREAIEELLRRIDVIKSVELRHFRLQGEKARLDTTETGHIDGRDVTYETRIISLKVNGVWVLKRIEVR | 1.53
TELEEEAKKYQDFFVTIVVTGDEDSFINLFDPNVRSVVNGRKLHGMHKWKRYIEELLRKIKNLRFELTIHEVNVIDGKVESHMELILRINGVEQRHDLNVHAEKFDGRWLYREIEIR | 1.46
TELEEEVERLMEIFHKAFETGDEHELKRLADPHVRLDFNGRDIHGMDFIIREWLKIKNMRFRIHLDHVELQGEKVHIDGKVEEDFDGVHRHHRVILIWEKYDGRWHHKRMHVK | 1.43
TELEEIFRLALEYLDKIWKTGDEHTLKRMFDPTTLLVVDGKRQHGMEFWREFLERYDHFHHLEVDDYHDVNGVLRLHGVIDGTVNGRRHEIHVHIVASKVNGKWRLKSVIFH | 1.5
TELEELMIKIIRLILRSHNTGDEDEQRKLLDPHVRWHIGDKEIHGRDLIIEHLKEVYERIDHIEFRENHVDIQGEKLHLDGRLIFIQGDKNIEFRVHYHFLIIDGVVDLIEVQIR | 1.5
TELEESAKRAVKHVVDLILTGDWELFEEMFDPHTRILVGDKHMHGREMASEHLRFWYEHLGVKHIEIRRIDVQGDKVVSDVETDIDGRHIRVNLVIHKVDGKWIIHSIHLD | 1.59
TELEHDVIHAFNLIVWAIRTGDEKTYHRLVDPRVQIDIGDKHLHGREDFTRLLREIRVTVRDWDFEHVRFQGDYAILHSRLDIEINIDGRIERIDVHQILFVEKINGRWRHTRESRH | 0.366
TELEHKAIEVVEAVFRNLHTGDESLLQELFDPNTKSLIDGVSVVGMHEIYKTIKHLRIEFESIEVHHITNVNGVLLLDVTLRERYRINGVEDEKQTRVHIIVRKIDGRWHLEHVRFH | 1.48
TELEKDAKEFFRIVIEAWLTGDEQKIEHLADPHVRLDINGVELHGWEELIRRLHDELHRYDYMQINVRRVEIQGEKIHVDGELELRFDGKIYRHEVEINILVVNGKNKEQKFVKK | 0.243
TELEKDVVEVLHFLTHAHKTGDEDAINRLLDPHTRIDIDGQEFIGREDALRLWHELRTTHMRIDDRRIQGDKIQVDGQVNYLVNGREEERDVTIHMVKFDGVWVLREIKID | 2.07
TELEKLLKEMSDIIHHAWRTGDEHLVRNLADPNVRFHTQIDGRNDERWGREEMEKALHDWLRHFGVKHIIDKSIELQGDKITIKGHVDVDGVKIDVRIFLIVVNGKLKTMKIEHD | 1.19

Sequence | protease stability score
TELEREVETFLEMWITAIHTGDWTTLIELIDPHARLDYDGREIHGMEYYVEEFIKRLQEHGARVDIKIDRIDFQGDKVRVIGQLEVIIGEKREVKDVIIYIEKVDGKWRLHHEEIV | 1.37
TELETELEHMVKIVIDSLLTGDEKKLHKQADPHVRHSQGEFEWHTREAMIRFFFELGIDHMTLTEIHLQGDFVEMHIENNINGRRVELRIHWHKFNGKWINRRTHVRHI | 0.698
TELREIFIHFAEMILENIQTGDEDTLDELADPNTRIDINGVTMHGREKISRHWKEHLDRYDHFRIEIKRIRSQGDFAENDVTLVIIYNGQRIRIRMEVEIIFVDGRIHSINERRE | 0.225
TEMEEEIRDSIELLDRAINTGDEEKLRRLFDPNTRREVGDKQHHGRELLIRQIVELGAEHHIHVDHWRLQGDKAVIDGTLNYEFNGREYRTRTTLHLVKINGRWLMHSIHLH | 1.08
TEMEEWSRLAIEIWEEVVRTGNEHDMARLLDPNTRLIVGEKEYHGMETVMHLLERIKNLVLRRFHIEHVRLQGDKVEIDARSVHHVNGRDIETTLKIISFKFNGRWTIRQESII | 0.614
TEMEKRAEHWARLMVDRLKTGDEEVLRKMMDPNTRLEIDGREFIGREEILKSWEELGIKHIIFRHIDIEIVDGVVHVHLDLHVRIGEKDTKIELRVTNEKINGRWVIRSIHIHDI | 1.69
TEMLEEALRFVEQLIKAILTGDESVFRNLVDPNAKNEIDGVEIHGWEFLNVFHKRYDHVTHLHFVLRSVRVYGDKLEMHGVVEIHGVIDGQERNFEVDTEIHVEKINGQWILRSLYVR | 1.11
TEMNDEARRAMKDFIEHLRTGDEDRLDKMLDPHVRMEINGRTFHGREDAIKWHREIRLEDITVKFSTIQGDKVRFFGEEDGIIDGQRHKTEVELIIRKVNGRWFIHEIQVH | 1.27
TENKRDLDLLIKLHLYLHKTGDWERLFKLMDPHARLEVGDFHIHGREEVIRWFVELMERVKNMRFDLQDRKVEVQGEKVIVRSDVEVNIDGVVIRVYLEVDSIKVDGKWHLHSERIELR | 1.29
TEQDEIAERVAREIMTMLLTGDWQRLRELADPHVRTIIDGVHVHGWDRMIEVLEVLHREIRIHDIREHSIKVYNGRVEIITHNDGEIDGQRVESSERHDIIIVNGRIKTIRLDIR | 1.34
TEQEHDMERLIEILIHSWRTGNEDELRRQIDPNARIDIGDKHFHGREFAIKHLSELRIKDFKLQHLDVQGDKVNVEGHLEGEINGRDDRYRYWIFVSKVNGQWFVERFHIV | 1.5
TEQMEWVEDIVRILVESINTGDEHVLKEMLDPNVRIHIGDKNVIGMEFIHRWLKEIRIEHLRVEISDVRFIGDKVKVRGRLKLHVDVDGRRHDVSHDVIIVFEKVDGKWFEREDRLL | 1.23
TERDEHIEEMTDEWIELLFTGDEESLKRLADPDMRVNFNGVEIHGMHNFMRWVLHVLEHWRIEVKIHHKEVQGDKIRVELKQNIHFNGRDIHRDNREHIFVVNGVNKHVILIYR | 1.43
TERDEHSRKMAHALVENFRTGDFETLHDLFDPRYLVILYIDGVDIRLHGREDFLRELKLINDRLGVDRVNLSVKHMEIQGDKVIMHFEEHQGDKTRRSEIRLEIINGRLRTSEWWIH | 0.788
TERDELMKRFAHIFYHWLETGDEESIKKMLDPDTLSIVDGVNLHGRDEHSRWHVELHENLGIDQIHYRLRRVEVQGDKARIDGEEEINGKHVKLRIELEVINGRIKDIRVSVR | 1.45
TERDMFIETYIQIFIEHVRTGDEEALARLADPNVRIRVGDKHLHGWHELRRFFHEWRVKDLDFRDYRYYDGRVEIRGFERVEFNGQERDMEVIFHFVKINGRWYLEETEIR | 2.32
TEREEDVKTAMDHLYEIIETGDWKEIHKLIDPNAKVHIDGRNLIGRELMTKIIEEMSEKYKNLRLELTHFEVQGNKVISHTNNRFDGREVRTLMILTKIDGRWIIHSINLE | 1.11
TEREEENRIARQLFEHDWETGDEDSIHRLADPHALLTDENEKLHGREDVTDWIIKVSRKYKNLQFRVTDQELQGNKLIIYSTSKYNGRTFHLIFFVLKVDGRWHFHHMRIE | 1.36
TEREEEVHHVQRLEWEALRTGNEEYLLRLIDPEVRIRQGDKTLIGREALNLHLKKVKNLQFRDIKLRDFDVQGEKIHLHTELIGEVDGRELKIDIDIHVKKINGRWVIDSFHIN | 1.32
TERHEHVLHLLNLFLEEWLTGDWDKFFRLADPNVKYFINGQDIHGRETIRENHEQKWRELRIREIRVHSVDVVGDKAHADITENLEVNGREIRTRSHLDIVVVNGRVHHVRMHVD | 0.544
TERREVVEQLLRHFFQSTITGDWRDLEHYIDPNARNIVNGKITHGREAITEYYMRFDYFHVDDIIIRERDVIDGQAHLRVEIHGQIEINGRKNRFETHVEIIILKVDGRWVWRSFDIR | 1.33
TESEEDAEWAFRILEHVLETGDEHLLRVLLDPHVRVHIDGRNIHGRENVIRELTEIRIHVEMHLEHVDLQGDKMHIDLRVHIIIIFNGQEKRRTHRMEMIVFKYDGKWFINEIHFH | 1.37
TESEFMKEYANKHLTRHLETGDWKDFQRNVDPNARVDFNGVELIGREHAIKLFHEIRIEHLEIHDVKMQGDKLEVDGILHTRQGDKRHDLKVIIHMLKVDGKWVITEIEVR | 0.948
TESEKEAHDAVKRSIDSWLTGDEHDMAELLDPNVRLEIGDKTFIGREEFVKWLKDVREKFKGVRLHIRDYRVHVVGDKVRVEIDIQEDYGDKFHDVTLVFILRKIDGRWHNQSVEVRIE | 1.58
TESEKLSRIVIKLLIESTRTGDERILHELVDPNVKLNVNGRELHGWEEMVKIHKQWRFHDLEVDSVRLIGDKMEIDTTIHGTIDGQKDNIDVRIILEKVNGRWVLREVHIK | 1.58
